The source of these data is paper PMC3690481.

Broadly, the Kd is the free concentration of one partner at which half of the binding sites on the other are occupied at equilibrium, for simple one-to-one binding.

In experiment [1] the target is FlAsH-tagged Met1-diUb E16A^prox (UniProt P0CG48). Kind of experiment: fluorescence anisotropy.
For another experiment, the target named is Lys63-linked diUb (UniProt P0CG48). The experiment in a line: fluorescence polarisation; FlAsH-tagged diUb fixed (10 μl of 100 nM plus 10 μl protein), OTULIN C129A variants serially diluted; 20 mM Tris pH 7.4, 100 mM NaCl, 5 mM β-mercaptoethanol, 0.1 mg/ml BSA; one-site binding model; triplicate. On the technique in general: Fluorescence polarisation rises when a labelled molecule tumbles more slowly, as on binding a larger partner.

In turn, m1; m3 OTULIN:N341D; proximal Ub:E16A returned a dissociation constant (Kd) in experiment [1] of 0.117 µM.
With “OTULIN (1–352) C129A (from UniProt Q96BN8 1-352) (enzyme)”, the Kd with Lys63-linked diUb stood at 12 µM.
